The text below walks through data of patent US20110286958A1, “HPMA POLYMER PLATINUM CHELATES” (Access Pharmaceuticals, Inc., priority 2010, published 2011).

For data set [1] the following is noted: 27° C.; cited from earlier work.
Data set [2] in a line: Release of small molecule Pt species from polymer-linker-Pt complexes at 37° C. in PBS. Type of data set: physicochemical. As to conditions: for Percent small platinum released from 1R,2R-DACH Pt(II) complex at 37° C. in PBS, 3 hours / Percent small platinum released from 1R,2R-DACH Pt(II) complex at 37° C. in PBS, 24 hours: 1R,2R-DACH stable chelate; for Percent small platinum released from cis-diammine Pt(II) complex at 37° C. in PBS, 3 hours / Percent small platinum released from cis-diammine Pt(II) complex at 37° C. in PBS, 24 hours: cis-diammine stable ligands. An excerpt: The compound tested comprised a poly(N-(2-hydroxypropyl)methacrylamide (10%)-co-methacrylamide (90%)) backbone polymer and either cis-diammine or 1R,2R-diaminocyclohexane (DACH) as the stable ligands/chelate of the Pt complex. The leaving-ligand comprised an N,O bidentate ligand with amidoaspartate (Asp) or amidomalonate (Ama).

Data set [3] can be described thus: Relative toxicity of Compound 1 made by two different processes, body weight in mice. Type of data set: in vivo, Female C57BL/6 mice. As to conditions: murine study; new process versus process of U.S. Pat. No. 7,166,733. As for the experimental part:
Biological evaluation can be carried out with the methods as described below.
Female C57BL/6 mice were randomized into 7 groups of 5 mice each. Each mouse was identified by ear notch and followed individually throughout the study. Animals were observed and weighed prior to dosing for establishment of dosing volumes. All mice were dosed by a single IP injection with either a) Compound 1 made by the processes described herein, b) Compound 1 made by the process described in U.S. Pat. No. 7,166,733, or c) vehicle control. Three doses of each compound were tested: 75 mg Pt/kg, 100 mg Pt/kg and 150 mg Pt/kg. Test compounds were dissolved in isotonic glucose and administered in a volume of 0.4 mL per 20 g body weight. Gross observations and body weights were recorded daily for 14 days. Percent body weight change for each animal on each day was calculated as the percent change from their body weight recorded on day 1 just prior to injection of compounds.

Ends that are not written are not given here. Ama = amidomalonate chelating group bound to Pt

On to `NC1CCCCC1N.O.O.O=[N+]([O-])[O-].O=[N+]([O-])[O-].[Pt+2]` (stereo not drawn) [diaqua platinum species, 1R,2R-DACH-diaquaplatinum (II) dinitrate], for which, in data set [1], the pKa1 is given as 5.4 and the pKa2 was 7.2.

Consider “Gly-Phe-Leu-Gly-Ama=Pt= (GFLG-Ama; also: Pt complex via Ama (=Pt=))”, for which, in data set [2], the “Percent small platinum released from 1R,2R-DACH Pt(II) complex at 37° C. in PBS, 3 hours” value stood at 0.7%; the “Percent small platinum released from 1R,2R-DACH Pt(II) complex at 37° C. in PBS, 24 hours” value was 2.4%; the “Percent small platinum released from cis-diammine Pt(II) complex at 37° C. in PBS, 3 hours” value is reported as 0.7%; the “Percent small platinum released from cis-diammine Pt(II) complex at 37° C. in PBS, 24 hours” value was 2.1%.

As for “Gly-Phe-Leu-Gly-Asp=Pt= (GFLGD; also: Pt conjugation (Asp=Pt=))”, in data set [2], the “Percent small platinum released from 1R,2R-DACH Pt(II) complex at 37° C. in PBS, 3 hours” value was found to be 2.0%; the “Percent small platinum released from 1R,2R-DACH Pt(II) complex at 37° C. in PBS, 24 hours” value came out at 6.5%; the “Percent small platinum released from cis-diammine Pt(II) complex at 37° C. in PBS, 3 hours” value was determined as 1.5%; the “Percent small platinum released from cis-diammine Pt(II) complex at 37° C. in PBS, 24 hours” value was found to be 4.7%.

As for poly(HPMA)-GGG-Ama=PtDACH [Compound 1], the safety profile result in data set [3] is given as “safety profile identical to that of Compound 1 made by the processes described previously”.
